Test results from patent publication US20060264369, “Aptamers to von Willebrand Factor and their use as thrombotic disease therapeutics” (published 2006).

What was measured:
[1] = target: T1, von Willebrand factor full length (Homo sapiens, UniProt P04275 SEQ:764-2813); experiment: flow; range 1.3-370 nM; conditions: tags: Calbiochem 681300
Experimental: Aptamer potency to block human vWF binding to lyophilized platelets was assessed by flow cytometric analysis. Titrations of aptamers (0 nM, 0.1 nM to 1000 nM) were pre-incubated briefly with 5 nM of full length human vWF in FACS buffer (PBS plus 0.5% bovine serum albumin) at room temperature in a volume of 50 uL. Another 50 uL containing 5 uL of lyophilized platelets plus 1 uL of 0.1 U/uL of botrocetin in FACS buffer was added to aptamer/vWF. This reaction was allowed to proceed for 15 minutes at 37 degrees C. after which 200 uL of FACS buffer was added. […] The pellets were resuspended in 100 uL of FACS buffer containing a 1:100 dilution of anti-vWF antibody and were incubated at room temperature for 30 minutes. […] The pellets were resuspended in a 1:100 solution of anti-IgG2a-FITC antibody and were incubated in the dark for 30 minutes at room temperature. The entire 100 uL was diluted into 200 uL of FACS buffer and analyzed immediately by flow cytometric analysis in the FACSCAN. […] Mean fluorescent intensity (“MFI”) readings were quantified for each sample analyzed by flow cytometry. […] IC₅₀ values were determined by fitting the percent inhibition of vWF binding to platelets as a function of aptamer concentration to the equation: % inhibition=% inhibitionₘₐₓ/(1+IC₅₀/aptamer conc.)

[2] = target: T1, von Willebrand factor full length; experiment: filter; 55% bound at 100 nM; conditions: tags: Calbiochem 681300
Experimental: (§1) For KD determination, chemically synthesized aptamers were purified using denaturing polyacrylamide gel electrophoresis, 5′end labeled with γ-³²P ATP and were tested for direct binding to full length human vWF (Calbiochem Cat.# 681300, La Jolla, Calif.). An 8 point protein titration was used in the dot blot binding assay (100 nM, 30 nM, 10 nM, 3 nM, 1 nM, 300 pM, 100 pM, 0 pM)) in 1× Dulbecco's PBS containing […] (final volume of 50 uL) for 30 minutes at room temperature. KD values were calculated by fitting the equation y=(max/(1+K/protein))+yint using KaleidaGraph (KaleidaGraph v. 3.51, Synergy Software).

[3] = target: T1, von Willebrand factor full length; experiment: filter; 42% bound at 100 nM; conditions: tags: Calbiochem 681300
Experimental: as §1

[4] = target: T1, von Willebrand factor full length; experiment: filter; 47% bound at 100 nM; conditions: tags: Calbiochem 681300
Experimental: as §1

[5] = target: T1, von Willebrand factor full length; experiment: filter; 44% bound at 100 nM; conditions: tags: Calbiochem 681300
Experimental: as §1

[6] = target: T1, von Willebrand factor full length; experiment: filter; 32% bound at 100 nM; conditions: tags: Calbiochem 681300
Experimental: as §1

[7] = target: T1, von Willebrand factor full length; experiment: filter; 33% bound at 100 nM; conditions: tags: Calbiochem 681300
Experimental: as §1

[8] = target: T1, von Willebrand factor full length; experiment: filter; 54% bound at 100 nM; conditions: tags: Calbiochem 681300
Experimental: as §1

[9] = target: T1, von Willebrand factor full length; experiment: filter; 51% bound at 100 nM; conditions: tags: Calbiochem 681300
Experimental: as §1

[10] = target: von Willebrand factor A1 domain (human) (Homo sapiens, UniProt P04275 SEQ:13-246); experiment: filter; 100 nM protein
Description: When a significant positive ratio of binding of RNA in the presence of human or rabbit vWF A1 domain (SEQ ID NOS […] and 6, respectively) versus in the absence of protein was seen, the pools were cloned using the TOPO TA cloning kit (Invitrogen Cat.# 45-0641, Carlsbad, Calif.) according to the manufacturer's instructions. Round 9 and 12 pool templates were cloned and sequenced (185 total sequences), producing 78 unique clones within 3 sequence families. All unique clones were transcribed, desalted, 5-³²P end-labeled, and assayed in a 3-point dot blot screen (no protein target control, 100 nM human vWF A1 domain (SEQ ID NO 5), or 100 nM rabbit vWF A1 domain (SEQ ID NO 6). The data are presented in the third and fourth columns of Table 9 below as the ratio of the fraction of the aptamer bound to the nitrocellulose in the presence of the target protein to the fraction of aptamer bound in the absence of the target protein. Of the three sequence families, members of Family #1 and # 2 and two individual, non-family aptamers, bound to both human vWF domain A1 (SEQ ID NO 5) and rabbit vWF domain A1 (SEQ ID NO 6).

Which IC50 [1] does the source give for GGAGCCACACGACATTGGCGCGAGAGCGCATGGCTCC (mixed, ribo purines, deoxy pyrimidines) [rRdY minimer SEQ 201] here?
The IC50 was 150 nM.

Which Kd [2] does the source give for GGCGTGCAGTGCCTTCGGCCGTGCGGTGCCTCCGTCACGCC (ssDNA, 2'-OMe at 2; 3'-idT) [ARC1195] here?
The Kd was 1 nM.

GGCGTGCAGTGCCTTCGGCCGTGCGGTGCCTCCGTCACGCC (ssDNA, 2'-OMe at 41; 3'-idT) [ARC1234] was tested. Which Kd [3] did it give?
The Kd was 2 nM.

With GGCGTGCAGTGCCTTCGGCCGTGCGGTGCCTCCGTCACGCC (ssDNA, 2'-OMe at 18; 3'-idT) [ARC1211] as the binder, how does the Kd [4] read?
Its Kd is 2 nM.

Which Kd [5] does the source give for GGCGTGCAGTGCCTTCGGCCGTGCGGTGCCTCCGTCACGCC (ssDNA, 2'-OMe at 16; 3'-idT) [ARC1209] here?
Its Kd is 2 nM.

With GGCGUGCAGTGCCTTCGGCCGTGCGGTGCCTCCGTCACGCC (ssDNA, 2'-OMe at 3,5,36,38,40,41; 3'-idT) [ARC1236] as the binder, how does the Kd [6] read?
The Kd was 3 nM.

How did the Kd [7] turn out when GGCGTGCAGTGCCTTCGGCCGTGCGGTGCCTCCGTCACGCC (ssDNA, 2'-OMe at 26; 3'-idT) [ARC1219] was run?
The Kd was 3 nM.

With GGCGTGCAGTGCCUTCGGCCGTGCGGTGCCTCCGTCACGCC (ssDNA, 2'-OMe at 14 (mU); 3'-idT) [ARC1207] as the binder, how does the Kd [8] read?
Its Kd is 2 nM.

GGCGTGCAGTGCCTTCGGCCGTGCGGTGCCTCCGTCACGCC (ssDNA, 2'-OMe at 39; 3'-idT) [ARC1232] was tested. Which Kd [9] did it give?
The Kd was 1 nM.

B1: AMX203.F9 (mixed)
DNA: GGAGCGCACTCAGCCACTGAAGGGTAAGGACGAGGAGGGTATACAGTGTGCGCGTGTATTTCGACCTCTCTGCTAGC
modifications: ribo purines, deoxy pyrimidines
With B1 as the binder, how does the binding signal [10] read?
The binding signal was 1.45 ratio to no protein.
